# The supplement of paper PMC9942255
# “And” between values parts separate entries of the source, which are not always exact repeats. Identical values can stand only once.
# Test system: Bacillus subtilis DB104 (SP-AmyQ fusion secretion)
# Assay: AmyQ secretion efficiency, weighted average sort bin (1 = best secretion, 10 = worst) (bin number (weighted average, 1-10)); higher = lower secretion efficiency
# In short: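 In this assay, the secretion score is defined as the average bin number weighted by read frequency, normalised to beads per bin, with low-abundance sequences not counted. B. subtilis DB104 cells expressing mature AmyQ behind designed signal peptides (amyE-integrated) were enclosed with fluorescein-starch in ~65 nL alginate beads at about 0.3 cells per bead. Beads grew about 13 h at room temperature, were stained with nile red, and occupied beads went into 10 equally populated green/red fluorescence ratio bins by large-particle flow cytometry, whose amplicons were Illumina-sequenced.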
row,Sequence,AmyQ secretion efficiency
1,MIQKRKRTVSFRLVLMCTLLFVSLPITKTSAVNG [wt_amyQ],1.16
2,MIRSISIFITCLLITLLTMGGMIASPASAAGT,2.35
3,MISKKLWISLLFALTLIFTMAFSNMSAQAAGK,1.95
4,MITAAAVLLSLGLVFGFSYGAGHVAEAKTK,3.09
5,MITTIVITCVMAASLTLGSLLPAGYASAKED,4.06
6,MIVIILLFISIIVFLKRKKKKIQPQPS,8.16
7,MIVIILLFISIIVFLSVIQPQPD,4.48
8,MIVIILLFISIIVFLSVIQPQPS,8.27 and 5.9 and 6.5
9,MIVIILLFISIIVFLVVTIQPQPS,8.71
10,MIVIKRKRKRIIVFLSVIQPQPS,8.52
11,MIVIMSFNLIILLFISIIVFLSVIQPQPS,6.9
12,MIVIRKRKISIIVFLSVIQPQPS,5.82
13,MIVLSTIITFNFIILLFISIIVFLSVIQPQPS,5.66
14,MIVSRQTRQRIIVFLSVIQPQPS,6.7
15,MKFVKRRGSRGQTTSTLSVTSLFALQPSAKAAEH,5.84
16,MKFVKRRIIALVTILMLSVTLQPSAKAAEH,3.15
17,MKFVKRRIIALVTILMLSVTSLFADEEEAKAAEH,2.36
18,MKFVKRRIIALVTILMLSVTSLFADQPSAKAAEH,3.52
19,MKFVKRRIIALVTILMLSVTSLFAKKRRRAKAAEH,7.85
20,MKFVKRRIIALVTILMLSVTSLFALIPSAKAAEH,2.54
21,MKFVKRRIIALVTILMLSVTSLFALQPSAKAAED,2.86
22,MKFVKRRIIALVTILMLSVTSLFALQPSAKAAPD,2.11
23,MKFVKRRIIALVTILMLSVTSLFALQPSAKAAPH,2.38
24,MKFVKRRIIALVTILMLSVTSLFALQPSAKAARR,1.74

row,Sequence,AmyQ secretion efficiency
1,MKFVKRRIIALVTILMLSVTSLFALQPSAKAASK,2.32
2,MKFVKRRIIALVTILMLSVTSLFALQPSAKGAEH,3.59
3,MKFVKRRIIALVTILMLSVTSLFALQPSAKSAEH,2.64
4,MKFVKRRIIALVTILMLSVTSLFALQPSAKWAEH,5.19
5,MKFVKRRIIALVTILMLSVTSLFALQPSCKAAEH,2.68
6,MKFVKRRIIALVTILMLSVTSLFALQPSFTPSPFFTVAKAAEH,2.95
7,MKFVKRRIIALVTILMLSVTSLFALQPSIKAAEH,3.57
8,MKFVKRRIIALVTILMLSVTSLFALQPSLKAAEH,2.75
9,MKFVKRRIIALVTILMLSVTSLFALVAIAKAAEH,4.46
10,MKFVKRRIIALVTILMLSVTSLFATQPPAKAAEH,2.78
11,MKFVKRRIRKKRRRLMLSVTSLFALQPSAKAAEH,6.62
12,MKFVKRRIRRKRTILMLSVTSLFALQPSAKAAEH,3.06
13,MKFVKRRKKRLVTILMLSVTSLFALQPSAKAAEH,2.78
14,MKGWMRTTLVVLFTIVTFGLVSPPAALMADKP,7.14
15,MKIRKIKKKKRKSFGMLISAVPALAAGT,7.53
16,MKIRKIKKSSALSFGMLISAVPALAAGT,4.2
17,MKIRKILLMMALFFMMLISAVPALAAGT,2.45
18,MKIRKILLSSALSFGMLEDDDEDALAAGT,5.74
19,MKIRKILLSSALSFGMLEDEVPALAAGT,2.62
20,MKIRKILLSSALSFGMLEEDDPALAAGT,2.69
21,MKIRKILLSSALSFGMLISAVPALAAEE,2.95
22,MKIRKILLSSALSFGMLISAVPALAAGR,2.62
23,MKIRKILLSSALSFGMLISAVPALAAKK,1.84
24,MKIRKILLSSALSFGMLISAVPALARKR,5.61

row,Sequence,AmyQ secretion efficiency
1,MKIRKILLSSALSFGMLISAVPALFAGT,5.97
2,MKIRKILLSSALSFGMLISAVPALGAGT,3.88
3,MKIRKILLSSALSFGMLISAVPALLAGT,4.82
4,MKIRKILLSSALSFGMLISAVPALMAGT,6.44
5,MKIRKILLSSALSFGMLISAVPALNAGT,6.27
6,MKIRKILLSSALSFGMLISAVPALTAGT,4.42
7,MKIRKILLSSALSFGMLISAVPCLAAGT,2
8,MKIRKILLSSALSFGMLISAVPGLAAGT,3.97
9,MKIRKILLSSALSFGMLISAVPVLAAGT,3.66
10,MKIRKILLSSALSFGMLKDKVPALAAGT,6.36
11,MKIRKILLSSALSFGMLKKRRKKALAAGT,6.86
12,MKIRKILLSSALSFGMLLILTSISAVPALAAGT,2.99
13,MKIRKILLSSALSFGMLRKRVPALAAGT,6.53
14,MKIRKILLSSALSFGMLVISAVPALAAGT,2.24
15,MKIRKIRRRKALSFGMLISAVPALAAGT,5.54
16,MKIRKLIFNMFLILLSSALSFGMLISAVPALAAGT,3.62
17,MKIRKMFMFILLSSALSFGMLISAVPALAAGT,2.01
18,MKIRKQRGYTGLSFGMLISAVPALAAGT,6.92
19,MKIVLLSALLLLLFAFEPSASGKKL,4.93
20,MKKAAAVLLSLGGFSYGAGHVAEAKTK,6.38
21,MKKAAAVLLSLGLVFDESYGAGHVAEAKTK,2.18
22,MKKAAAVLLSLGLVFDKGYEPGHVAEAKTK,2.85
23,MKKAAAVLLSLGLVFEDEDEAGHVAEAKTK,5.2
24,MKKAAAVLLSLGLVFFLLTSGFSYGAGHVAEAKTK,3.03

row,Sequence,AmyQ secretion efficiency
1,MKKAAAVLLSLGLVFGFSYGAEAKTK,2.21
2,MKKAAAVLLSLGLVFGFSYGAGHVAEAAED,3.87
3,MKKAAAVLLSLGLVFGFSYGAGHVAEAAKK,5.64
4,MKKAAAVLLSLGLVFGFSYGAGHVAEAATD,3.51
5,MKKAAAVLLSLGLVFGFSYGAGHVAEAATS,2.5
6,MKKAAAVLLSLGLVFGFSYGAGHVAEADDD,5.61
7,MKKAAAVLLSLGLVFGFSYGAGHVAECKTK,4.74
8,MKKAAAVLLSLGLVFGFSYGAGHVAEGKTK,2.6
9,MKKAAAVLLSLGLVFGFSYGAGHVAEKKTK,6.23
10,MKKAAAVLLSLGLVFGFSYGAGHVAELKTK,6.97
11,MKKAAAVLLSLGLVFGFSYGAGHVAENKTK,4.78
12,MKKAAAVLLSLGLVFGFSYGAGHVAESKTK,4.52
13,MKKAAAVLLSLGLVFGFSYGAGHVAETKTK,5.95
14,MKKAAAVLLSLGLVFGFSYGAGHVAEYKTK,6.37
15,MKKAAAVLLSLGLVFGFSYGAGHVDEAKTK,7.45
16,MKKAAAVLLSLGLVFGFSYGAGHVHEAKTK,5.32
17,MKKAAAVLLSLGLVFGFSYGAGHVKEAKTK,6.72
18,MKKAAAVLLSLGLVFGFSYGAGHVMEAKTK,5.11
19,MKKAAAVLLSLGLVFGFSYGAGHVNEAKTK,5.96
20,MKKAAAVLLSLGLVFGFSYGAGHVQEAKTK,7.17
21,MKKAAAVLLSLGLVFGFSYGAGHVREAKTK,7.77
22,MKKAAAVLLSLGLVFGFSYGAGHVVEAKTK,2.99
